Data taken from patent publication US20150218248A1.

Target: HLA-A2 molecule
Assay: HLA class I stabilization assay, RMA-S/A2 cells, peptide 10 µg/ml, flow cytometry with BB7.2

Row | HLA binding capability (%) (MFI increase) | Binder
1 | 31.2% | LIMQLMPFGCL [T790M-7]
2 | 267% | MQLMPFGCLL [T790M-5]
3 | 69.3% | IMQLMPFGCLL [T790M-8]
